# Assay results from the Immune Epitope Database (IEDB).
# Key:
# Assay in all cases: IEDB peptide-MHC binding, purified MHC/competitive/radioactivity; filed as Kd, often an IC50 or EC50 that approximates it; ≥ and ≤ were set here for values at or beyond the usual limits of such assays
# HLA-B*18:01 = target: HLA-B*18:01
# HLA-B*40:01 = target: HLA-B*40:01
# HLA-B*45:01 = target: HLA-B*45:01
# HLA-B*44:03 = target: HLA-B*44:03
# HLA-B*44:02 = target: HLA-B*44:02
# HLA-B*40:02 = target: HLA-B*40:02
# HLA-B*15:03 = target: HLA-B*15:03
# HLA-B*15:01 = conditions: source organism: Vaccinia virus WR
# HLA-B*08:01 = conditions: source organism: Vaccinia virus WR
# HLA-A*30:01 = conditions: source organism: Vaccinia virus WR
# HLA-A*32:01 = target: HLA-A*32:01
# HLA-B*53:01 = target: HLA-B*53:01
# HLA-B*51:01 = target: HLA-B*51:01
# HLA-B*07:02 = target: HLA-B*07:02
# HLA-A*02:01 = target: HLA-A*02:01
# [1] = source organism: SARS coronavirus Tor2
# [2] = source organism: Vaccinia virus WR
# [3] = source organism: Mammarenavirus brazilense
# [4] = source organism: Dengue virus 3 Martinique/1243/1999
# [5] = source organism: Dengue virus 3 Sri Lanka/1266/2000
# [6] = source organism: Dengue virus 2 Jamaica/1409/1983
# [7] = source organism: Dengue virus 1 Brazil/97-11/1997
# [8] = source organism: Dengue virus 1 Singapore/S275/1990
# [9] = source organism: Mammarenavirus machupoense
# [10] = source organism: Mammarenavirus lassaense
# [11] = source organism: Vaccinia virus Copenhagen
# [12] = source organism: Dengue virus 4 Philippines/H241/1956
sequence,measurement,setting,value
KENDSKEGFF,Kd,HLA-B*18:01; [1],7490 nM
same,Kd,HLA-B*40:01; [1],2690 nM
same,Kd,HLA-B*45:01; [1],24.4 nM
same,Kd,HLA-B*44:03; [1],30 nM
same,Kd,HLA-B*44:02; [1],39.8 nM
same,Kd,HLA-B*40:02; [1],366 nM
LEFIHSQGF,Kd,HLA-B*15:03; [2],107 nM
LESAQPGLL,Kd,HLA-B*18:01; [3],≥ 10000 nM
same,Kd,HLA-B*40:01; [3],147 nM
same,Kd,HLA-B*45:01; [3],13500 nM
same,Kd,HLA-B*44:03; [3],16800 nM
same,Kd,HLA-B*44:02; [3],2950 nM
same,Kd,HLA-B*40:02; [3],431 nM
LEWLAEVVKL,Kd,HLA-B*18:01; [1],1240 nM
same,Kd,HLA-B*40:01; [1],104 nM
same,Kd,HLA-B*45:01; [1],9160 nM
same,Kd,HLA-B*44:03; [1],7240 nM
same,Kd,HLA-B*44:02; [1],9310 nM
same,Kd,HLA-B*40:02; [1],≥ 20100 nM
LHAVYSIVF,Kd,HLA-B*15:03; [2],8.81 nM
LIGARRTSF,Kd,HLA-B*15:01,40.1 nM
same,Kd,HLA-B*15:03; [2],176 nM
same,Kd,HLA-B*08:01,1.5 nM
same,Kd,HLA-A*30:01,563 nM
same,Kd,HLA-A*32:01; [2],5820 nM
LIRNKRLSL,Kd,HLA-B*15:01,455 nM
same,Kd,HLA-B*15:03; [2],215 nM
same,Kd,HLA-B*08:01,0.783 nM
same,Kd,HLA-A*30:01,696 nM
same,Kd,HLA-A*32:01; [2],≥ 77800 nM
LPETMETLL,Kd,HLA-B*53:01; [4],3580 nM
LPLFIFSLK,Kd,HLA-B*51:01; [4],13100 nM
LPMTVAAMGV,Kd,HLA-B*07:02; [5],50.7 nM
same,Kd,HLA-B*51:01; [5],633 nM
LPVWLAYRV,Kd,HLA-B*53:01; [6],200 nM
same,Kd,HLA-B*51:01; [6],130 nM
MAFIAFLRFL,Kd,HLA-B*51:01; [7],16100 nM
MEVTARWLW,Kd,HLA-B*44:03; [8],10.9 nM
same,Kd,HLA-B*44:02; [8],2.1 nM
same,Kd,HLA-B*53:01; [8],804 nM
MIEEVMRSRW,Kd,HLA-B*53:01; [7],166 nM
MIKIALSVA,Kd,HLA-B*15:01,2780 nM
same,Kd,HLA-B*15:03; [2],559 nM
same,Kd,HLA-B*08:01,535 nM
same,Kd,HLA-A*30:01,1270 nM
same,Kd,HLA-A*32:01; [2],4690 nM
MKSLAMTAF,Kd,HLA-B*15:03; [2],0.182 nM
MTSYQYLII,Kd,HLA-A*02:01; source organism: Lassa virus Josiah,926 nM
QPMEHKYSW,Kd,HLA-B*07:02; [7],141 nM
same,Kd,HLA-B*53:01; [7],57.8 nM
RAAGLQDCTML,Kd,HLA-A*02:01; source organism: Hepatitis C virus (isolate 1),≥ 50000 nM
RELLKSLSGL,Kd,HLA-B*18:01; [9],≥ 70400 nM
same,Kd,HLA-B*40:01; [9],877 nM
same,Kd,HLA-B*45:01; [9],≥ 70000 nM
same,Kd,HLA-B*44:03; [9],≥ 23300 nM
same,Kd,HLA-B*44:02; [9],≥ 22500 nM
same,Kd,HLA-B*40:02; [9],61.2 nM
REVGDTSSDL,Kd,HLA-B*18:01; [10],≥ 70400 nM
same,Kd,HLA-B*40:01; [10],11500 nM
same,Kd,HLA-B*45:01; [10],≥ 70000 nM
same,Kd,HLA-B*44:03; [10],≥ 24800 nM
same,Kd,HLA-B*44:02; [10],≥ 24500 nM
same,Kd,HLA-B*40:02; [10],1360 nM
RLNPEVSYF,Kd,HLA-B*15:01,0.304 nM
same,Kd,HLA-B*15:03; [2],0.32 nM
RLQPNQPPK,Kd,HLA-B*15:01,934 nM
same,Kd,HLA-B*15:03; [2],298 nM
same,Kd,HLA-B*08:01,1010 nM
same,Kd,HLA-A*30:01,145 nM
same,Kd,HLA-A*32:01; [2],1520 nM
RSHIRKPPS,Kd,HLA-B*15:01,11000 nM
same,Kd,HLA-B*15:03; [2],≥ 23100 nM
same,Kd,HLA-B*08:01,3330 nM
same,Kd,HLA-A*30:01,82.1 nM
same,Kd,HLA-A*32:01; [2],≥ 77800 nM
SMWYIPNVF,Kd,HLA-B*15:03; [11],0.722 nM
same,Kd,HLA-A*32:01; [11],5.1 nM
SMYPSYIEF,Kd,HLA-B*15:03; [2],0.11 nM
SPIEDIEREI,Kd,HLA-B*07:02; [12],5450 nM
same,Kd,HLA-B*53:01; [12],411 nM
same,Kd,HLA-B*51:01; [12],≥ 22000 nM
SSKVFLKAF,Kd,HLA-B*15:01,1.7 nM
same,Kd,HLA-B*15:03; [2],0.369 nM
same,Kd,HLA-B*08:01,728 nM
same,Kd,HLA-A*30:01,2410 nM
same,Kd,HLA-A*32:01; [2],7020 nM
VGVNHSNTF,Kd,HLA-B*15:03; [2],80.6 nM
YKFSCGLSL,Kd,HLA-B*15:03; [2],0.132 nM
